Experimental data: IntAct's records for PubMed 31515488

B1: E3 ubiquitin-protein ligase MYLIP (Homo sapiens), Q8WY64 (parent)
chain: MLCYVTRPDAVLMEVEVEAKANGEDCLNQVCRRLGIIEVDYFGLQFTGSKGESLWLNLRNRISQQMDGLAPYRLKLRVKFFVEPHLILQEQTRHIFFLHIKEALLAGHLLCSPEQAVELSALLAQTKFGDYNQNTAKYNYEELCAKELSSATLNSIVAKHKELEGTSQASAEYQVLQIVSAMENYGIEWHSVRDSEGQKLLIGVGPEGISICKDDFSPINRIAYPVVQMATQSGKNVYLTVTKESGNSIVLLFKMISTRAASGLYRAITETHAFYRCDTVTSAVMMQYSRDLKGHLASLFLNENINLGKKYVFDIKRTSKEVYDHARRALYNAGVVDLVSRNNQSPSHSPLKSSESSMNCSSCEGLSCQQTRVLQEKLRKLKEAMLCMVCCEEEINSTFCPCGHTVCCESCAAQLQSCPVCRSRVEHVQHVYLPTHTSLLNLTVI
partner: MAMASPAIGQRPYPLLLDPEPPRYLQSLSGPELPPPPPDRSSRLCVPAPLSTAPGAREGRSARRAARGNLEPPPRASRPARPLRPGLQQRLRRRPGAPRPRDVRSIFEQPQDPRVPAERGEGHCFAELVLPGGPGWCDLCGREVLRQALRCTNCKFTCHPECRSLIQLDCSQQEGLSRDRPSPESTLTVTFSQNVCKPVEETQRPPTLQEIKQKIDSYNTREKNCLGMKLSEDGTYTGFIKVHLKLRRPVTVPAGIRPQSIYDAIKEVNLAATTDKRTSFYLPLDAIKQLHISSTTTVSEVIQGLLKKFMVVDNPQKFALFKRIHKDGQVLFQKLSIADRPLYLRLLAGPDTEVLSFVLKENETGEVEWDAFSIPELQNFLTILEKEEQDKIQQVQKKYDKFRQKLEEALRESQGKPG
B2: Hypoxanthine-guanine phosphoribosyltransferase (Homo sapiens), P00492 (parent)
chain: MATRSPGVVISDDEPGYDLDLFCIPNHYAEDLERVFIPHGLIMDRTERLARDVMKEMGGHHIVALCVLKGGYKFFADLLDYIKALNRNSDRSIPMTVDFIRLKSYCNDQSTGDIKVIGGDDLSTLTGKNVLIVEDIIDTGKTMQTLLSLVRQYNPKMVKVASLLVKRTPRSVGYKPDFVGFEIPDKFVVGYALDYNEYFRDLNHVCVISETGKAKYKA
B3: Myeloid leukemia factor 1 (Homo sapiens), P58340 (parent)
chain: MFRMLNSSFEDDPFFSESILAHRENMRQMIRSFSEPFGRDLLSISDGRGRAHNRRGHNDGEDSLTHTDVSSFQTMDQMVSNMRNYMQKLERNFGQLSVDPNGHSFCSSSVMTYSKIGDEPPKVFQASTQTRRAPGGIKETRKAMRDSDSGLEKMAIGHHIHDRAHVIKKSKNKKTGDEEVNQEFINMNESDAHAFDEEWQSEVLKYKPGRHNLGNTRMRSVGHENPGSRELKRREKPQQSPAIEHGRRSNVLGDKLHIKGSSVKSNKK
partner: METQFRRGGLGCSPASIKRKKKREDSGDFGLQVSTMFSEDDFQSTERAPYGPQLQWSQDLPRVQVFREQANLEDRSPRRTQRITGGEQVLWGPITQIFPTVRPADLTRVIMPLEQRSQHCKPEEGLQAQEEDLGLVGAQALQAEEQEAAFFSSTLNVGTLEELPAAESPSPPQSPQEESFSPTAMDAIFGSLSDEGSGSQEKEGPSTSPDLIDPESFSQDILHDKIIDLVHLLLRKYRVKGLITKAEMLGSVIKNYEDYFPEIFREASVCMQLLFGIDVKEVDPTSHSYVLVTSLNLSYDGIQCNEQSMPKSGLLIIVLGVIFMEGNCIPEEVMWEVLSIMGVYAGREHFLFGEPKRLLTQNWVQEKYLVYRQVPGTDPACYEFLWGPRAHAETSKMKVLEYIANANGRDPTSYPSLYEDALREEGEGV
B4: Pachytene checkpoint protein 2 homolog (Homo sapiens), Q15645 (parent)
chain: MDEAVGDLKQALPCVAESPTVHVEVHQRGSSTAKKEDINLSVRKLLNRHNIVFGDYTWTEFDEPFLTRNVQSVSIIDTELKVKDSQPIDLSACTVALHIFQLNEDGPSSENLEEETENIIAANHWVLPAAEFHGLWDSLVYDVEVKSHLLDYVMTTLLFSDKNVNSNLITWNRVVLLHGPPGTGKTSLCKALAQKLTIRLSSRYRYGQLIEINSHSLFSKWFSESGKLVTKMFQKIQDLIDDKDALVFVLIDEVESLTAARNACRAGTEPSDAIRVVNAVLTQIDQIKRHSNVVILTTSNITEKIDVAFVDRADIKQYIGPPSAAAIFKIYLSCLEELMKCQIIYPRQQLLTLRELEMIGFIENNVSKLSLLLNDISRKSEGLSGRVLRKLPFLAHALYVQAPTVTIEGFLQALSLAVDKQFEERKKLAAYI
partner: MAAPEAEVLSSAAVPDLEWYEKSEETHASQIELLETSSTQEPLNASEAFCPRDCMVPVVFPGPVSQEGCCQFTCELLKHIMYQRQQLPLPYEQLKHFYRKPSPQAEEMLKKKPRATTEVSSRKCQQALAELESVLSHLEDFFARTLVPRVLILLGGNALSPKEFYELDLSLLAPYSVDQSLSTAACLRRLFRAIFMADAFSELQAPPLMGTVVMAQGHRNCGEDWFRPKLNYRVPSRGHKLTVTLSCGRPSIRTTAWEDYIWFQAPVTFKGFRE
B5: Cysteine-rich C-terminal protein 1 (Homo sapiens), Q9UGL9 (parent)
chain: MSSQQSAVSAKGFSKGSSQGPAPCPAPAPTPAPASSSSCCGSGRGCCGDSGCCGSSSTSCCCFPRRRRRQRSSGCCCCGGGSQRSQRSNNRSSGCCSGC
partner: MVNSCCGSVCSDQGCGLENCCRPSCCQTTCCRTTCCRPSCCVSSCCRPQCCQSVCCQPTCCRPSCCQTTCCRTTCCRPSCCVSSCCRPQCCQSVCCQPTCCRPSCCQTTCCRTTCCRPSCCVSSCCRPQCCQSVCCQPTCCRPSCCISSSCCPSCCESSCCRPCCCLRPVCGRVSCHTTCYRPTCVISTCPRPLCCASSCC
B6: Golgin-45 (Homo sapiens), Q9H2G9 (parent)
chain: MTTKNLETKVTVTSSPIRGAGDGMETEEPPKSVEVTSGVQSRKHHSLQSPWKKAVPSESPGVLQLGKMLTEKAMEVKAVRILVPKAAITHDIPNKNTKVKSLGHHKGEFLGQSEGVIEPNKELSEVKNVLEKLKNSERRLLQDKEGLSNQLRVQTEVNRELKKLLVASVGDDLQYHFERLAREKNQLILENEALGRNTAQLSEQLERMSIQCDVWRSKFLASRVMADELTNSRAALQRQNRDAHGAIQDLLSEREQFRQEMIATQKLLEELLVSLQWGREQTYSPSVQPHSTAELALTNHKLAKAVNSHLLGNVGINNQKKIPSTVEFCSTPAEKMAETVLRILDPVTCKESSPDNPFFESSPTTLLATKKNIGRFHPYTRYENITFNCCNHCRGELIAL
B7: Low-density lipoprotein receptor class A domain-containing protein 1 (Homo sapiens), Q5T700 (parent)
chain: MNKVFPQGENGYTAAESKAHPGGEAGGGHLCCSRRGACLSASLLLLLATVAALIALVTILGLPSCTPGAQACITLTNRTGFLCHDQRSCIPASGVCDGVRTCTHGEDEDESLCRDVPQSLPHFLVAHCGDPASWIYSDQKCDGTNNCGDCSDELSPVTVCPPCGPGWWRCPSTFFKYCDCIPRHLCRDHVQHCSDWSDEYACPGP
partner: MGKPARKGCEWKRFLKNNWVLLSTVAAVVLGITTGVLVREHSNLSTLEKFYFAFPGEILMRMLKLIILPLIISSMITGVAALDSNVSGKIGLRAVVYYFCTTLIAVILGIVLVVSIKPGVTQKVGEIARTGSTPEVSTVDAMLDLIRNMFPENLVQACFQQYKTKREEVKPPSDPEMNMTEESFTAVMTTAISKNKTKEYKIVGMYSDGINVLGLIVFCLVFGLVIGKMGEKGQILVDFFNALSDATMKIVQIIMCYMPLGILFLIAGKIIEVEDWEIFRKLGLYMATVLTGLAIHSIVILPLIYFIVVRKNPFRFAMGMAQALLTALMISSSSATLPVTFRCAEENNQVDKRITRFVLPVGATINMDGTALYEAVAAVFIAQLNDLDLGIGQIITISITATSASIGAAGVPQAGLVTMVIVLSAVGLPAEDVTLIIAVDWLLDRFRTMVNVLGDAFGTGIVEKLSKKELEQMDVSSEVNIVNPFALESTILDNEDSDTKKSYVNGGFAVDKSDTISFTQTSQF
B8: Low-density lipoprotein receptor class A domain-containing protein 1 (Homo sapiens), Q5T700 (parent)
chain: B7 chain

Variants of: B1
Details: with rasf5_human RASSF5, Q8WWW0

effect of a mutation on the interaction	Variant
with no effect	N342S

Variants of: B2
Details: with sdcb1_human SDCBP

effect of a mutation on the interaction	Variant
disrupting interaction strength	P38S
disrupting interaction strength	C206Y

Variants of: B2
Details: with iscu_human ISCU

effect of a mutation on the interaction	Variant
disrupting interaction strength	P38S
disrupting interaction strength	C206Y

Variants of: B2
Details: with prdc1_human PRTFDC1, Q9NRG1
Chain of prdc1_human PRTFDC1, Q9NRG1 (Q9NRG1 whole entry): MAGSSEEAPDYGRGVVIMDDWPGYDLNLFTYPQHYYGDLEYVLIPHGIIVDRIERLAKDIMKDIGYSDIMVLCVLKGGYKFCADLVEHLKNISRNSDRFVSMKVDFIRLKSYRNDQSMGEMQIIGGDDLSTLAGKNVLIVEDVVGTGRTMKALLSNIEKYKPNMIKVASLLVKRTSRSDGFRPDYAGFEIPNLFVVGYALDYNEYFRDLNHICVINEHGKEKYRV

effect of a mutation on the interaction	Variant
with no effect	P38S
with no effect	C206Y

Variants of: B2
Details: with ntaq1_human NTAQ1, Q96HA8

effect of a mutation on the interaction	Variant
disrupting interaction strength	P38S
disrupting interaction strength	C206Y

Variants of: B3
Details: with magab_human MAGEA11, P43364

effect of a mutation on the interaction	Variant
with no effect	P226T

Variants of: B4
Details: with md2bp_human MAD2L1BP

effect of a mutation on the interaction	Variant
with no effect	G409E

Variants of: B5
Details: with kr412_human KRTAP4-12, Q9BQ66

effect of a mutation on the interaction	Variant
with no effect	G20S

Variants of: B6
Details: with aakb2_human PRKAB2, O43741
Chain of aakb2_human PRKAB2, O43741 (O43741 whole entry): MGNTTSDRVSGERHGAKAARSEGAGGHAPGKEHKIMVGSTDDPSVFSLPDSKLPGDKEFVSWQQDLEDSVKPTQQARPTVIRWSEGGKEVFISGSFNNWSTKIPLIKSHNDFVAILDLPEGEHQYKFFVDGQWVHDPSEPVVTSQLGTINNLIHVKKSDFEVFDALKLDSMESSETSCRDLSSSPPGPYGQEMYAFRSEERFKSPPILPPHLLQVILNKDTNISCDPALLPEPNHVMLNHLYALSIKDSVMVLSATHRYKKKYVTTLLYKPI

effect of a mutation on the interaction	Variant
with no effect	H45R

Variants of: B6
Details: with rab2a_human RAB2A

effect of a mutation on the interaction	Variant
with no effect	H45R

Variants of: B6
Details: with zbt24_human ZBTB24, O43167
Chain of zbt24_human ZBTB24, O43167 (O43167 whole entry): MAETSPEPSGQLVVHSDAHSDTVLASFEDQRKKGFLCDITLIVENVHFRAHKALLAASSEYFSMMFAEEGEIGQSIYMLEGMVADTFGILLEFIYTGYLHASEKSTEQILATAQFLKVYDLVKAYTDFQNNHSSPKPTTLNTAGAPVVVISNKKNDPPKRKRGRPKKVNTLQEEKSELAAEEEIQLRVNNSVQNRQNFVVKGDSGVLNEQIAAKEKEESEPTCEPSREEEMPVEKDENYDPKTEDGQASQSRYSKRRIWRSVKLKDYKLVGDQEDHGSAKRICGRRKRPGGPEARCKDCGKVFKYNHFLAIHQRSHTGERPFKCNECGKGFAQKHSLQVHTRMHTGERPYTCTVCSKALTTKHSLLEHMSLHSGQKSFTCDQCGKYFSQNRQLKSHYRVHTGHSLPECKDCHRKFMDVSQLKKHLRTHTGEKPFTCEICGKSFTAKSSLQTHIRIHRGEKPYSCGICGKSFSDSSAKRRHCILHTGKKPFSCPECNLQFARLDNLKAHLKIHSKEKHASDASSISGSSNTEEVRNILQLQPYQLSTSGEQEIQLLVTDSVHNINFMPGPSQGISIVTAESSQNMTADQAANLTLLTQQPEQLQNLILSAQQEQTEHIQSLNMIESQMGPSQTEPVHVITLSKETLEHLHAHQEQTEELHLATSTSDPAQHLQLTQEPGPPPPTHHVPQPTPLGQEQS

effect of a mutation on the interaction	Variant
with no effect	H45R

Variants of: B7
Details: with eaa3_human SLC1A1, P43005

effect of a mutation on the interaction	Variant
with no effect	G105S
with no effect	E108K

Variants of: B8
Details: with tm190_human TMEM190, Q8WZ59
Chain of tm190_human TMEM190, Q8WZ59 (Q8WZ59 whole entry): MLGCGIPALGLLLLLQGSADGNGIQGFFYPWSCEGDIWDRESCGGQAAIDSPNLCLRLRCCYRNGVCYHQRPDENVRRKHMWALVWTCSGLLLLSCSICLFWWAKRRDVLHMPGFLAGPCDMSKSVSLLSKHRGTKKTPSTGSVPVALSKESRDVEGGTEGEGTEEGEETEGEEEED

effect of a mutation on the interaction	Variant
with no effect	E108K

Variants of: B8
Details: with tm218_human TMEM218, A2RU14
Chain of tm218_human TMEM218, A2RU14 (A2RU14 whole entry): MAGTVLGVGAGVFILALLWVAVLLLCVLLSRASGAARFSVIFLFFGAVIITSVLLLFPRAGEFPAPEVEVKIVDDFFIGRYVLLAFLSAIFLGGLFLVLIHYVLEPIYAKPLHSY

effect of a mutation on the interaction	Variant
with no effect	E108K

Variants of: B8
Details: with bni3l_human BNIP3L

effect of a mutation on the interaction	Variant
with no effect	E108K

Variants of: B8
Details: with tm147_human TMEM147, Q9BVK8
Chain of tm147_human TMEM147, Q9BVK8 (Q9BVK8 whole entry): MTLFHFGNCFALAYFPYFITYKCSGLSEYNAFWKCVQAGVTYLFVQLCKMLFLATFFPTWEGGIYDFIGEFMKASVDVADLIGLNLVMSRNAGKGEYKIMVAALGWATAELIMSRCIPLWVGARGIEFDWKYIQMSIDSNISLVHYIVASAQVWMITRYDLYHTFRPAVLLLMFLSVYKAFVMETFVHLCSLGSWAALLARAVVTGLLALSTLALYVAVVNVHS

effect of a mutation on the interaction	Variant
with no effect	E108K

Variants of: B8
Details: with mal_human MAL

effect of a mutation on the interaction	Variant
with no effect	E108K

Variants of: B8
Details: with mall_human MALL

effect of a mutation on the interaction	Variant
with no effect	S42F

Variants of: B8
Details: with olfm4_human OLFM4, Q6UX06
Chain of olfm4_human OLFM4, Q6UX06 (Q6UX06 whole entry): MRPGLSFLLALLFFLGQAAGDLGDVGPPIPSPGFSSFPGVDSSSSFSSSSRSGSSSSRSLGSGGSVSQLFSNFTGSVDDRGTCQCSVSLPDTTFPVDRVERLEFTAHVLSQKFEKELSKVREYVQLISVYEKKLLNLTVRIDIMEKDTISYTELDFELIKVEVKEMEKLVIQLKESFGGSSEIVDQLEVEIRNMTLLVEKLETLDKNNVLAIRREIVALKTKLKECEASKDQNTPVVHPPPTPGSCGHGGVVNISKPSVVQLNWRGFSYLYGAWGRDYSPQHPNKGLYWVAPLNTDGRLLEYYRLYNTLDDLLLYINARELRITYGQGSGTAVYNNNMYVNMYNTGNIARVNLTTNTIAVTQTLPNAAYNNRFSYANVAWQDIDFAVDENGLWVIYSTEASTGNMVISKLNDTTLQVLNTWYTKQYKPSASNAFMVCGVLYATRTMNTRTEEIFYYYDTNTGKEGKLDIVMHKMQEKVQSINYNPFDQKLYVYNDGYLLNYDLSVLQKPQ

effect of a mutation on the interaction	Variant
with no effect	S42F
